The values that follow come from patent US20250270566A1, “DUAL-SPECIFICITY RNA ATPAMERS FOR REGULATING O-GLCNACYLATION” (University of Georgia Research Foundation, Inc., published 2025).

By Kd is commonly meant the constant that tells how readily two partners part at equilibrium. A low value points to higher affinity.

The target of data set [1] is T1, ncOGT full-length (OGT-FL, nucleocytoplasmic O-GlcNAc transferase) (UniProt O15294 O15294:1-1046).
T1 sequence: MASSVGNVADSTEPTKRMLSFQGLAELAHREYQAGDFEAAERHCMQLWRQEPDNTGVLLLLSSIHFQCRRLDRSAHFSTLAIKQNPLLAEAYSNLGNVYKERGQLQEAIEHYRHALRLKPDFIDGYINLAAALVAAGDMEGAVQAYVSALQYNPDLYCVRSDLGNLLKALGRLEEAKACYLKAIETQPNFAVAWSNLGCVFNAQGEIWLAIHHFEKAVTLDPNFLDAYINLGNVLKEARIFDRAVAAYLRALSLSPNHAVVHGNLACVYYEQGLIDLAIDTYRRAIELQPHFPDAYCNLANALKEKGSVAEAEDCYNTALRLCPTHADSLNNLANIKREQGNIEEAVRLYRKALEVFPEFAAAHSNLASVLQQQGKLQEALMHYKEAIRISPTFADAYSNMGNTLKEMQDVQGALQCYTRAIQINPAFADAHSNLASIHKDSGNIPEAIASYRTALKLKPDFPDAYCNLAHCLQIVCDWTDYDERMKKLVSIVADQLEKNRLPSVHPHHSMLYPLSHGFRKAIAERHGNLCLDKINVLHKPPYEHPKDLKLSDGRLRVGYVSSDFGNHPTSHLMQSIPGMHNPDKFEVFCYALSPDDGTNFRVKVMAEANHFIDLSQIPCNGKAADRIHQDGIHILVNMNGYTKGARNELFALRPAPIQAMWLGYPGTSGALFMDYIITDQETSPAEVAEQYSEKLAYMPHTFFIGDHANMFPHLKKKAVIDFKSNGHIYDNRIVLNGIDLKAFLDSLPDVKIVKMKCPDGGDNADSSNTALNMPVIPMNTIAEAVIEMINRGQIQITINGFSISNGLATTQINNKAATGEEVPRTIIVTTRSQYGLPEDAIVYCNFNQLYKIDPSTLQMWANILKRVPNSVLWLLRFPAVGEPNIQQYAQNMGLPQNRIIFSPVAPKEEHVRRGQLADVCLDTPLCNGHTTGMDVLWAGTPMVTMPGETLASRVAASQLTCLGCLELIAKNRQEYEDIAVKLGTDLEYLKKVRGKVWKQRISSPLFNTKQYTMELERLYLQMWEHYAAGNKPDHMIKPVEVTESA
Put plainly: SPR; ABB (20 mM Tris-HCl, 150 mM NaCl, 5 mM MgCl2, 0.05% Tween-20, pH 7.5), 25 C, 1:1 model. Particulars: tags: His tag (Ni-NTA purified, pET24a-ncOGT-FL, E. coli). Here is the method:
T1 was included in the indicated reactions (orange) from 2 μM to 7.8 nM in 2× serial dilution. Data were normalized to the positive control reaction (red). One-way ANOVA test was performed. […] OGT was immunoprecipitated from lysate of T1-expressing cells, using buffers with Mg²⁺ (left) or without Mg²⁺ (right). Then the OGT-bound T1 was quantified by RT-qPCR. Data were normalized to the IgG groups. One-way ANOVA test was performed. RT—Reverse Transcriptase. N=3. […] N=3. […] Cells stably expressing T1 were treated with ActD for the indicated periods. Abundance of T1 was quantified by RT-qPCR (left) and normalized to that of 18S rRNA (right) and initial timepoint (T=0). Data were fitted to a one-phase decay model (curve). N=3. Data are represented as mean±SD. ns, p≥0.05; ****, p<0.0001.
For SPR, Multi Cycle Kinetics was performed according to (Chang, A. L., et al. Methods Enzymol 2014 549:451-466) on a Biacore T100 (GE Healthcare/Cytiva) instrument at 25° C. In assay preparation, an amine-modified T24 DNA linker (NH2-T24) was immobilized to approximately 100 RU in both reference and test flow cells on a sensorchip PEG (GE Healthcare/Cytiva 29239810), using the Amine Coupling Kit (GE Healthcare/Cytiva BR100050). […] Data was analyzed using the Biacore Evaluation Software (GE Healthcare/Cytiva), where the overlaid sensorgrams were fitted into a 1:1 binding model.
In general terms: Surface plasmon resonance follows binding to a sensor surface in real time, without labels.

Data set [2] has as its target T1, ncOGT full-length (OGT-FL, …). Put plainly: FP filter; radiolabeled dot blot (nitrocellulose filter), ABB with 5 mM MgCl2, 37 C, yeast tRNA and BSA competitors. Particulars: tags: His tag (Ni-NTA purified, pET24a-ncOGT-FL, E. coli); label: 5'-32P (dot blot). The procedure:
Radiolabeled RNA was diluted in ABB, denatured at 65° C. for 5 min and re-folded at room temperature for 5 min. Then 100 nM of RNA was incubated with multiple concentrations (see Figure legends) of purified ncOGT at 37° C. for 30 min. The volume of each assay was 50 μL. 1 μM yeast tRNA (Invitrogen AM7119) and 50 μg/mL Bovine Serum Albumin (BSA, NEB B9001S) were included as non-specific competitors. After incubation, the reactions were filtered sequentially through a nitrocellulose membrane (Amersham 10600042) and a Nylon membrane (Invitrogen AM10102), on a Bio-Dot Microfiltration Apparatus (Bio-Rad 170-6545). Membranes were washed with 100 μL ABB to remove unbound RNA. Washed membranes were air-dried and exposed to a film (Amersham 28906836) for 2 hr. The film was developed and scanned, and the image was analyzed with Fiji (Schindelin, J., et al. Nat Methods 2012 9:676-682). Quantified data was fitted into a Michaelis-Menten model using GraphPad Prism.

The target in a further data set is T2, EP300 (UniProt Q09472 2-2414).
T2 construct: Endogenous protein in HEK293T cells
T2 sequence (Q09472 2-2414 limits assumed): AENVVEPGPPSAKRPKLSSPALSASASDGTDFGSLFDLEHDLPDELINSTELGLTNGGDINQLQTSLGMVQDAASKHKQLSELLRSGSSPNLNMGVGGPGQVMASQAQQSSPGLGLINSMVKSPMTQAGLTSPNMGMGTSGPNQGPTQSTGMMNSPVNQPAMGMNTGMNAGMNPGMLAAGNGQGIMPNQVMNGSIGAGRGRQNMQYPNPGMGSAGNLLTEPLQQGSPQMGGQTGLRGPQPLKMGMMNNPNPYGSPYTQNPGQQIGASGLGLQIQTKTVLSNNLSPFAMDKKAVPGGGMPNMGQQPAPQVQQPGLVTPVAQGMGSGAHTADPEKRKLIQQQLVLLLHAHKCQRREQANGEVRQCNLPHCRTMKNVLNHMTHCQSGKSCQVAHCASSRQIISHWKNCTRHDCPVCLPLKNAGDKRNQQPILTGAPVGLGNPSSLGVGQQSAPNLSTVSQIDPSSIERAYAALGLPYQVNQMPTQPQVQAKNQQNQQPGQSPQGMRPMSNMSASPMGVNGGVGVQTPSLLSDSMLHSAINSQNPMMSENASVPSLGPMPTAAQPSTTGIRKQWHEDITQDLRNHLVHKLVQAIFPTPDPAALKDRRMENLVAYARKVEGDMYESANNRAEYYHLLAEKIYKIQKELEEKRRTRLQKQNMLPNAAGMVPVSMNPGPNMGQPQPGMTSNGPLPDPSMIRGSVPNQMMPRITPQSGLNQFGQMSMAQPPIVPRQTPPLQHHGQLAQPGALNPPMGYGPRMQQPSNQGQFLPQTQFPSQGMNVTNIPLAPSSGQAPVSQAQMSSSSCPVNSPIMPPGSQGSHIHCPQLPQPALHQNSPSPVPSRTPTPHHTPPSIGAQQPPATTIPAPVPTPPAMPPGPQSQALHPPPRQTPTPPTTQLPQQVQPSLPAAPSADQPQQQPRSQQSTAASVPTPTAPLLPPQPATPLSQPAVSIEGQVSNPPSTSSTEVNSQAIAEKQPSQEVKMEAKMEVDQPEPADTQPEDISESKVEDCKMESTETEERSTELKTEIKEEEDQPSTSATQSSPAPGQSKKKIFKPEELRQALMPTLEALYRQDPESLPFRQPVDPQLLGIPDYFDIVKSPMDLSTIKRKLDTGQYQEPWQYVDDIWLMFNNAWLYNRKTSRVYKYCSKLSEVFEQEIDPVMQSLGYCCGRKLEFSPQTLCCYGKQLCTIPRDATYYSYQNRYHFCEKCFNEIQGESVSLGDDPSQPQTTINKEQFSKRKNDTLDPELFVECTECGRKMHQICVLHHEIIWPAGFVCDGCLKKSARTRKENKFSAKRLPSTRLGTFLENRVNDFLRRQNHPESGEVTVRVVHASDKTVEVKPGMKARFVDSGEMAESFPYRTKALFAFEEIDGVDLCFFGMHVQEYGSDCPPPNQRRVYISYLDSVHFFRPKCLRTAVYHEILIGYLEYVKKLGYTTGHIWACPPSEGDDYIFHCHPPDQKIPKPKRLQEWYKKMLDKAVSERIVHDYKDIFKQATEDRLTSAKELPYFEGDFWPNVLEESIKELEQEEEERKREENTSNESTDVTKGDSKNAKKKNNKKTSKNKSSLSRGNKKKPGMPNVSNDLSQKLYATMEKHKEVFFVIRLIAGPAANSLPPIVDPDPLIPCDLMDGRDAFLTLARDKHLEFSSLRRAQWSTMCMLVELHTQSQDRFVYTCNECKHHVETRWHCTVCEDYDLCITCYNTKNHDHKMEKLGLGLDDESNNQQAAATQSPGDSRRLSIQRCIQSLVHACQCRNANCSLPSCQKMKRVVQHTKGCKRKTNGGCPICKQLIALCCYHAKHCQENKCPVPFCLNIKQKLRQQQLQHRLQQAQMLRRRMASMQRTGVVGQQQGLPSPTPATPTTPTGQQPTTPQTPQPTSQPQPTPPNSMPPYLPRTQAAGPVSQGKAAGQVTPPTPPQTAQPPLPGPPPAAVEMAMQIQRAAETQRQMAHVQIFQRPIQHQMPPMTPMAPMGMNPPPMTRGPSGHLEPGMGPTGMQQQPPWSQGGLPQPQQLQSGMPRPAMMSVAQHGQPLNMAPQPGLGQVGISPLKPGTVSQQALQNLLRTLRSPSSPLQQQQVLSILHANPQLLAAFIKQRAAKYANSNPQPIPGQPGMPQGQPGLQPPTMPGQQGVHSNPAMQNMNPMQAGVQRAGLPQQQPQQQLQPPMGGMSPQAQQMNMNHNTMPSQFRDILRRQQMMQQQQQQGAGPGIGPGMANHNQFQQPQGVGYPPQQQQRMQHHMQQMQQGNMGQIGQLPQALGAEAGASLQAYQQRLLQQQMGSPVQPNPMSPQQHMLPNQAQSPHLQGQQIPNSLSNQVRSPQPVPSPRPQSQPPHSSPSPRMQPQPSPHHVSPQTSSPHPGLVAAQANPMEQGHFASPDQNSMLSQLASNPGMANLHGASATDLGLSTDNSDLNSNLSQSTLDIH
In words: PLA with antibodies to β-catenin and EP300, confocal images of HEK293T cells, -Wnt, T1 • bc339 or 3JB8F+12. Here is the method: FIGS. 13A to 13P show O-GlcNAc regulates β-catenin's interactions with other epigenetic modifiers and β-TrCP. FIGS. 13A to 13F contain confocal images of PLA on HEK293T cells. Cells were transfected with plasmids encoding the control aptamers (T1·bc339) or a DS aptamer (3JB8F+12), and stimulated with regular (−Wnt) or Wnt3A-conditioned (+Wnt) medium. PLA was performed with antibodies targeting β-catenin and EP300, KAT5, or β-TrCP. FIGS. 13G and 13H contain confocal images of the negative control experiments of PLA. Cells were treated with regular (−Wnt) or Wnt3A-conditioned (+Wnt) medium. PLA was performed with the antibody targeting β-catenin and normal rabbit IgG. FIGS. 13I to 13P show quantification of FIGS. 13A to 13H. Nuclear or total PLA puncta were counted and normalized to the number of nuclei in each view. N=10 (I to N) or N=5 (O to P). Student's t-test was performed. Data are represented as mean±SD. **, p<0.01; ***, p<0.001. T1·bc339—Individual T1 and bc339 aptamers (control). 3JB8F+12—A DS aptamer (T1-linker-bc339) with a folded linker.

The target in a further data set is T3, KAT2A (GCN5) (UniProt Q92830 2-837).
T3 construct: Endogenous protein in HEK293T cells; also called KAT2A/GCN5L2
T3 sequence (Q92830 2-837 limits assumed): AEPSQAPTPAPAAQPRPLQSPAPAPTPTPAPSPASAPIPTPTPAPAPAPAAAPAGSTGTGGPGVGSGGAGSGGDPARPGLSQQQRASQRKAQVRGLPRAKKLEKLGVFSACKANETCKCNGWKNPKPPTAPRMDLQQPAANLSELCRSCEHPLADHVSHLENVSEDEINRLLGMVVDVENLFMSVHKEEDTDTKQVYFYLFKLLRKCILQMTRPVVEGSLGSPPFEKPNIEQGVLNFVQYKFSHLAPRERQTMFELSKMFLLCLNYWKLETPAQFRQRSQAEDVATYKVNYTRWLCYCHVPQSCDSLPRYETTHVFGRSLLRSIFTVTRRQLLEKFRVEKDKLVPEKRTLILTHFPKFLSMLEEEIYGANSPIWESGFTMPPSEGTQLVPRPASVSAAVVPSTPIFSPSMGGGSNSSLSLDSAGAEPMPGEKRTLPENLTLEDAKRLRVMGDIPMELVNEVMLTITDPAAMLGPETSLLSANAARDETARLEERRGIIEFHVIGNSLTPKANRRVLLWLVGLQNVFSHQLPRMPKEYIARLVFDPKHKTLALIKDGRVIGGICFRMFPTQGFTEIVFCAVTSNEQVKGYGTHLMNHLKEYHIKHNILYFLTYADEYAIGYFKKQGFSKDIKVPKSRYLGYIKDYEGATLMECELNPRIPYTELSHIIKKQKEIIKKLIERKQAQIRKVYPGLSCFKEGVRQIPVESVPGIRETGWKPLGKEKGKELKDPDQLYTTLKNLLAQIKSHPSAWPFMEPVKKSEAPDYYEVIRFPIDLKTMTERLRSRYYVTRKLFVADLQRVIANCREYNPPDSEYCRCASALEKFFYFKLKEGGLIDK
Put plainly: PLA with antibodies to β-catenin and KAT2A, confocal images of HEK293T cells, -Wnt, T1 • bc339 or 3JB8F+12. The procedure:
FIGS. 12A to 12P show O-GlcNAc regulates β-catenin's interactions with KAT2A. FIGS. 12A to 12H contain confocal images of Proximity Ligation Assay (PLA) on HEK293T cells. Cells were transfected with plasmids encoding the control aptamers (T1·bc339) or a DS aptamer (3JB8F+12 or 3JB8R+12) and stimulated with regular (−Wnt) or Wnt3A-conditioned (+Wnt) medium. PLA was performed with antibodies targeting […] and KAT2A or H3K9ac. In FIGS. 12C and 12D, cells were treated with 50 μM Ac5S for 20 hr. FIGS. 12I to 12P show quantification of FIGS. 12A to 12H. PLA puncta in nucleus were counted and normalized to the number of nuclei in each view. Student's t-test was performed. Data are represented as mean±SD. ns, p≥0.05; ***, p<0.001; ****, p<0.0001. N=10. T1·bc339—Individual T1 and bc339 aptamers (control). 3JB8F+12/R+12—DS aptamers (T1-linker-bc339) with folded linkers.

The target of a further data set is β-catenin (UniProt P35222 P35222:1-781). In words: SPR; intracellular buffer (20 mM HEPES, 110 mM KCl, 10 mM NaCl, 0.4 mM MgCl2, 5 mM KH2PO4, pH 7.2), 25 C. To be noted: tags: His tag (Ni-NTA purified, pET28a-β-catenin, E. coli). Here is the method: Total PLA puncta was counted and normalized to the number of nuclei in each view. Student's t-test was performed. N=8. […] Nucleus and cytoplasm of cells stably expressing 3JB8F+12 was isolated, and RNA in each fraction was quantified by RT-qPCR. RNA abundances were normalized to that of 3JB8F+12 in whole cell lysate (purple bar in upper panel). NEAT1 is a nuclear RNA control, and GAPDH is a cytoplasmic RNA control. Cyt.—Cytoplasm. Nuc.—Nucleus. W.C.—Whole Cell. N=4. T1·bc339—Individual T1 and bc339 aptamers (control). NL8F50/70/100—DS aptamers (T1-linker-bc339) with flexible linkers of 50/70/100 nt. 3JB8F—DS aptamers (T1-linker-bc339) with folded linkers. +4/+12, serial additions (bp) into the folded linker. Quantitated data are normalized to the control group (T1·bc339). Aptamers were expressed from plasmids, and One-way ANOVA test was performed unless indicated. Data are represented as mean±SD. ns, p≥0.05; *, p<0.05; **, p<0.01; ***, p<0.001; ****, p<0.0001.
For SPR, Multi Cycle Kinetics was performed according to (Chang, A. L., et al. Methods Enzymol 2014 549:451-466) on a Biacore T100 (GE Healthcare/Cytiva) instrument at 25° C. […] Data was analyzed using the Biacore Evaluation Software (GE Healthcare/Cytiva), where the overlaid sensorgrams were fitted into a 1:1 binding model.

B1: T1 with 3' A28 tail (ssRNA)
RNA: GGGAGAAUCACUUACGGAUCCUCGUUAAGUGGCUCUCAGUCGCCCGUAACUCCGAUGCCGAUGCAGCGGCGACAACUGCACCCAAGGCUCGGAAGCUU
Molecule B1 had a Kd in data set [1] of 60.5 nM.

B2: T1 (ssRNA)
RNA: B1 RNA
B2 came in with a Kd in data set [2] of about 60 nM.

B3: β-catenin (endogenous, in HEK293T cells) (other, UniProt P35222 2-781, looked up)
chain: ATQADLMELDMAMEPDRKAAVSHWQQQSYLDSGIHSGATTTAPSLSGKGNPEEEDVDTSQVLYEWEQGFSQSFTQEQVADIDGQYAMTRAQRVRAAMFPETLDEGMQIPSTQFDAAHPTNVQRLAEPSQMLKHAVVNLINYQDDAELATRAIPELTKLLNDEDQVVVNKAAVMVHQLSKKEASRHAIMRSPQMVSAIVRTMQNTNDVETARCTAGTLHNLSHHREGLLAIFKSGGIPALVKMLGSPVDSVLFYAITTLHNLLLHQEGAKMAVRLAGGLQKMVALLNKTNVKFLAITTDCLQILAYGNQESKLIILASGGPQALVNIMRTYTYEKLLWTTSRVLKVLSVCSSNKPAIVEAGGMQALGLHLTDPSQRLVQNCLWTLRNLSDAATKQEGMEGLLGTLVQLLGSDDINVVTCAAGILSNLTCNNYKNKMMVCQVGGIEALVRTVLRAGDREDITEPAICALRHLTSRHQEAEMAQNAVRLHYGLPVVVKLLHPPSHWPLIKATVGLIRNLALCPANHAPLREQGAIPRLVQLLVRAHQDTQRRTSMGGTQQQFVEGVRMEEIVEGCTGALHILARDVHNRIVIRGLNTIPLFVQLLYSPIENIQRVAAGVLCELAQDKEAAEAIEAEGATAPLTELLHSRNEGVATYAAAVLFRMSEDKPQDYKKRLSVELTSSLFRTEPMAWNETADLGLDIGAQGEPLGYRQDDPSYRSFHSGGYGQDALGMDPMMEHEMGGHHPGADYPVDGLPDLGHAQDLMDGLPPGDSNQLAWFDTDL
modifications: O-GlcNAc at varying levels (raised by the DS aptamer 3JB8F+12); sites not fully mapped
notes: Endogenous protein detected in fixed cells (PLA) or cell lysate (Co-IP) with an anti-β-catenin antibody; HEK293T is a human cell line; also called endogenous β-catenin
Consider B3, for which the binding result with EP300 and with KAT2A (GCN5) was “binds” each time.

B4: bc339 with 3' A28 tail (ssRNA)
RNA: AGCUUCUGGGCGGCGAUGAGAUGACGUGUGCGGUGGUCGAGAGGUACCUUGGGUGAGGGAAGGGAAGGGAGGUUGACCACUGCGUGACUGCCCAGAAGCU
The molecule B4 showed a Kd with β-catenin of 16 nM.
